Laboratory results as given in patent publication CN114920842A (HUALAN GENE ENG CO LTD, dated 2022).
Residue numbers refer to the chain shown, from its start.

B1: HLPV-P01 (antibody, IgG1, V domains shown)
VH: QVQLVQSGAEVKKPGASVKVSCKASGYTFTDYYMYWVRQAPGQGLEWIGEINPTQGDVNFNEMFKSRVTMTVDTSTSTAYMELSSLRSEDTAVYYCTSIFYWGQGTLVTVSS
VL: DIVMTQSPSSLSASVGDRVTITCKASQDIKYQLSWYQQKPGKAPKTLIYYATDLADGVPSRFSGSGSGQEFTLTISSLQPEDFATYYCVQHDDRPFTFGQGTKLEIK
notes: Full IgG1/kappa antibody; also called 中间抗体; not shown: human IgG1 heavy chain constant region, UniProtKB P01857.1; human Kappa light chain constant region, UniProtKB P01834.2
B2: HLPV-P06 (antibody, IgG1, V domains shown)
VH: B1 VH with D31A, Q55S
VL: B1 VL with D53F
notes: Full IgG1/kappa antibody; not shown: human IgG1 heavy chain constant region, UniProtKB P01857.1; human Kappa light chain constant region, UniProtKB P01834.2
B3: HLPV-P10 (antibody, IgG1, V domains shown)
VH: B1 VH
VL: B1 VL with S34T, D92S
notes: as for B2
B4: HLPV-P02 (antibody, IgG1, V domains shown)
VH: B1 VH with T28V, Q55T
VL: B1 VL with A51S
notes: as for B2
B5: HLPV-P13 (antibody, IgG1, V domains shown)
VH: B1 VH with T28V, Q55S
VL: B1 VL with T52G
notes: as for B2
B6: HLPV-P05 (antibody, IgG1, V domains shown)
VH: B1 VH
VL: B1 VL with S34T, D93N
notes: as for B2
B7: HLPV-P12 (antibody, IgG1, V domains shown)
VH: B1 VH with T54S
VL: B1 VL with L54R
notes: as for B2
B8: HLPV-P09 (antibody, IgG1, V domains shown)
VH: B1 VH with S98T
VL: B1 VL with K30G, D92Y
notes: as for B2
B9: HLPV-P03 (antibody, IgG1, V domains shown)
VH: B1 VH with T30E, I51V
VL: B1 VL with D53F
notes: as for B2
B10: HLPV-P07 (antibody, IgG1, V domains shown)
VH: B1 VH with T30E, N59R
VL: B1 VL with D53Y
notes: as for B2
B11: HLPV-P11 (antibody, IgG1, V domains shown)
VH: B1 VH with S98T
VL: B1 VL with T97S
notes: as for B2
B12: HLPV-P14 (antibody, IgG1, V domains shown)
VH: B1 VH with D31N, Q55S
VL: B1 VL with T52G
notes: as for B2
B13: HLPV-P00 (antibody, IgG1, V domains shown)
VH: B1 VH with F100H
VL: B1 VL with Y31T, V89L
notes: Full IgG1/kappa antibody, VH fused at its C-terminus to the IgG1 constant region, VL to the kappa constant region; expressed in ExpiCHO-S; also called 原始抗体; not shown: human IgG1 heavy chain constant region, UniProtKB P01857.1; human Kappa light chain constant region, UniProtKB P01834.2
B14: HLPV-P08 (antibody, IgG1, V domains shown)
VH: B1 VH with S98T
VL: B1 VL with S34T, Q90S
notes: as for B2
B15: HLPV-P04 (antibody, IgG1, V domains shown)
VH: B1 VH with T30R, Q55T
VL: B1 VL with D53S
notes: as for B2

target: T1, 重组人PLVAP/PV-1蛋白 (human, UniProt Q9BX97 49-442, limits assumed); assay: SPR, Biacore T200, PV-1 coupled to CM5 chip, antibody as analyte, 25℃, 1:1 fit
T1 construct: Bought reagent (Abcam); Coupled to a CM5 chip in the SPR assay; also called 质膜膜泡关联蛋白
T1 sequence (looked up): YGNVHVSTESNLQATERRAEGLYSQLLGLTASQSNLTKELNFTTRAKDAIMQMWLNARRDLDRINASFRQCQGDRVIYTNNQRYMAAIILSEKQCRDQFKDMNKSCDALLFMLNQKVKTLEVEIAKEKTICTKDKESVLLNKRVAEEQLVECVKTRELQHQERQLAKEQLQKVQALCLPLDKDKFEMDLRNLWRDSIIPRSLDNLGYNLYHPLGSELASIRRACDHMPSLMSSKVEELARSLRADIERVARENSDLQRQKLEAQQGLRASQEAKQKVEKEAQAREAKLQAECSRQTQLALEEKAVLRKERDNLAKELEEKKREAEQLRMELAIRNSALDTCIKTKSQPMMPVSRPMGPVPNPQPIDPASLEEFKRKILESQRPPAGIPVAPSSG

Row | Binder | 倍数 (fold against HLPV-P00)
1 | B1 | 7.31 fold
2 | B2 | 8.95 fold
3 | B3 | 23.4 fold
4 | B4 | 6.29 fold
5 | B5 | 9.29 fold
6 | B6 | 25.8 fold
7 | B7 | 4.1 fold
8 | B8 | 36.8 fold
9 | B9 | 13.4 fold
10 | B10 | 11.4 fold
11 | B11 | 40.5 fold
12 | B12 | 8.58 fold
13 | B13 | 1 fold
14 | B14 | 38.4 fold
15 | B15 | 14 fold
